From the supplement of paper PMC10724198
± gives the standard deviation of the averaged measurements.

The sequences below were run on Saccharomyces cerevisiae (assay: protein stability index of tFT-peptide fusion (C-terminal peptide) (PSI (0-1 scale)); higher = more stable (slower turnover)). Details: genetic background: wild type; temperature: 30 C.
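Also: PSI is a weighted mean of sequencing reads over stability bins, variants kept only with over 10 reads, mCherry proximal and sfGFP distal, peptide attached via GGGS linker.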

PPPASLTSPRQP and PPPASPLVPPSP are within error of each other in protein stability index: 0.731 ± 0.013 for the first, 0.712 ± 0.021 for the second.

First: PPPAYTPPLPPP
Second: PPPCPPPRRHPP
The protein stability index of the first is higher: 0.669 ± 0.0073 for the first, 0.605 ± 0.022 for the second.

PPPDSPPLPAPP and PPPFLQPLPASP are within error of each other in protein stability index: 0.659 ± 0.033 for the first, 0.729 ± 0.045 for the second.

PPPFSPPAPSPP and PPPHAKPPPGPL are within error of each other in protein stability index: 0.669 ± 0.053 for the first, 0.672 ± 0.019 for the second.

PPPHIPPPPLSA and PPPHPLPPLPAT are within error of each other in protein stability index: 0.682 ± 0.025 for the first, 0.744 ± 0.043 for the second.

PPPIPGDPTPCP and PPPLACLPLSLR are within error of each other in protein stability index: 0.667 ± 0.021 for the first, 0.71 ± 0.043 for the second.

PPPLACPSPPVT and PPPLFPALHHPP are within error of each other in protein stability index: 0.734 ± 0.12 for the first, 0.639 ± 0.051 for the second.

PPPLLPPHLPLL and PPPLLPPRPLAP are within error of each other in protein stability index: 0.717 ± 0.032 for the first, 0.731 ± 0.019 for the second.

First: PPPLLPPTLPPR
Second: PPPLPLPPPLPP
The protein stability index of the first is higher: 0.713 ± 0.047 for the first, 0.533 ± 0.046 for the second.

PPPLPLPSPPPP and PPPLPPIPSRPH are within error of each other in protein stability index: 0.671 ± 0.089 for the first, 0.701 ± 0.019 for the second.

Going from PPPLPPLSPPPS to PPPLPPPPPAPS, the protein stability index falls from 0.749 ± 0.023 to 0.692 ± 0.0096.

PPPLPPPPPPPP and PPPLPPPTPLPT are within error of each other in protein stability index: 0.673 ± 0.026 for the first, 0.681 ± 0.12 for the second.

PPPLPPRLPHLA and PPPLRAFPPPLL are within error of each other in protein stability index: 0.664 ± 0.036 for the first, 0.648 ± 0.06 for the second.

PPPLSCPRPPIT and PPPLSLLPPCSP are within error of each other in protein stability index: 0.664 ± 0.031 for the first, 0.678 ± 0.12 for the second.

PPPNPFRGPFPL and PPPPAPPPLLLP are within error of each other in protein stability index: 0.663 ± 0.035 for the first, 0.717 ± 0.044 for the second.

PPPPAPSPPIPP and PPPPDPPAPSSP are within error of each other in protein stability index: 0.692 ± 0.037 for the first, 0.749 ± 0.078 for the second.

First: PPPPFPPPSPPL
Second: PPPPFRPSPPLP
The protein stability index of the first is higher: 0.7147 ± 0.0063 for the first, 0.664 ± 0.0084 for the second.

PPPPHAHFPPPP and PPPPHPPPPLFP are within error of each other in protein stability index: 0.652 ± 0.013 for the first, 0.714 ± 0.083 for the second.

First: PPPPHPPRPPRP
Second: PPPPLAPAPPAF
The protein stability index of the first is lower: 0.676 ± 0.0074 for the first, 0.744 ± 0.016 for the second.

Compared with PPPPLLPPPIPL, PPPPLLRSPLHL is higher in protein stability index: 0.6847 ± 0.0032 for the first, 0.731 ± 0.011 for the second.

Compared with PPPPLPDTLRSP, PPPPLPLPPFSP is higher in protein stability index: 0.6238 ± 0.0053 for the first, 0.8017 ± 0.0011 for the second.

First: PPPPLPPCTPAT
Second: PPPPLPPLSPSP
The protein stability index of the first is lower: 0.6797 ± 0.0047 for the first, 0.7604 ± 0.0068 for the second.

Compared with PPPPLPPSPCSL, PPPPLRPPAAPP is higher in protein stability index: 0.567 ± 0.019 for the first, 0.639 ± 0.005 for the second.

PPPPPLPRSPSP and PPPPPLYLPRFV are within error of each other in protein stability index: 0.807 ± 0.12 for the first, 0.675 ± 0.056 for the second.

PPPPPPARLPSP and PPPPPPATPPPS are within error of each other in protein stability index: 0.711 ± 0.017 for the first, 0.681 ± 0.045 for the second.

PPPPPPGHLPRL and PPPPPPGSPTRP are within error of each other in protein stability index: 0.76 ± 0.05 for the first, 0.788 ± 0.075 for the second.

PPPPPPLFPPCP and PPPPPPLSPSPP are within error of each other in protein stability index: 0.659 ± 0.11 for the first, 0.756 ± 0.011 for the second.

PPPPPPLVLSPL and PPPPPPPHLPSL are within error of each other in protein stability index: 0.678 ± 0.02 for the first, 0.711 ± 0.079 for the second.

PPPPPPPLPSLR and PPPPPPPLVPPL are within error of each other in protein stability index: 0.671 ± 0.0086 for the first, 0.703 ± 0.12 for the second.

PPPPPPPNSHPH and PPPPPPPPAPLP are within error of each other in protein stability index: 0.678 ± 0.021 for the first, 0.708 ± 0.089 for the second.

First: PPPPPPPPLPPP
Second: PPPPPPPPPPPP
The protein stability index of the first is lower: 0.5856 ± 0.0041 for the first, 0.627 ± 0.031 for the second.

PPPPPPPPPPSL and PPPPPPPPPPSS are within error of each other in protein stability index: 0.746 ± 0.061 for the first, 0.709 ± 0.13 for the second.

PPPPPPPPPRSS and PPPPPPPPSALP are within error of each other in protein stability index: 0.718 ± 0.021 for the first, 0.719 ± 0.043 for the second.

First: PPPPPPPRPDPP
Second: PPPPPPPYPLIP
The protein stability index of the first is lower: 0.557 ± 0.04 for the first, 0.67 ± 0.013 for the second.

PPPPPPRFHALH and PPPPPPRRSSPP are within error of each other in protein stability index: 0.715 ± 0.021 for the first, 0.681 ± 0.069 for the second.

PPPPPPSPLGPP and PPPPPPTPSLRL are within error of each other in protein stability index: 0.674 ± 0.057 for the first, 0.72 ± 0.021 for the second.

PPPPPPTRCHTP and PPPPPPVPSRPL are within error of each other in protein stability index: 0.728 ± 0.056 for the first, 0.644 ± 0.046 for the second.

PPPPPPVRSLPL and PPPPPRAAPPPP are within error of each other in protein stability index: 0.72 ± 0.088 for the first, 0.668 ± 0.061 for the second.

PPPPPRHPSSPP and PPPPPRPPLPHL are within error of each other in protein stability index: 0.71068 ± 0.00014 for the first, 0.686 ± 0.038 for the second.

PPPPPSAISPTH and PPPPPSFSFPPT are within error of each other in protein stability index: 0.732 ± 0.0036 for the first, 0.706 ± 0.049 for the second.

PPPPPSHPPPLS and PPPPPTALLRPP are within error of each other in protein stability index: 0.571 ± 0.0097 for the first, 0.731 ± 0.18 for the second.

PPPPRPAPAPLL and PPPPRTLASPSY are within error of each other in protein stability index: 0.6948 ± 0.0067 for the first, 0.679 ± 0.026 for the second.

Going from PPPPSAPPLPLP to PPPPSLPPPLPF, the protein stability index rises from 0.61 ± 0.018 to 0.7844 ± 0.0011.

PPPPSPALPTFP and PPPPSPFPLPSP are within error of each other in protein stability index: 0.715 ± 0.049 for the first, 0.6846 ± 0.0024 for the second.

Going from PPPPSPSPLPPS to PPPPTPPYTPVP, the protein stability index falls from 0.751 ± 0.015 to 0.623 ± 0.032.

PPPQGSQPSTLS and PPPQHLPPPSLS are within error of each other in protein stability index: 0.739 ± 0.051 for the first, 0.676 ± 0.019 for the second.

PPPRPICCALNS and PPPRPLQPRPRP are within error of each other in protein stability index: 0.655 ± 0.014 for the first, 0.6502 ± 0.0019 for the second.

PPPRPPALPPLP and PPPRPPPASPVP are within error of each other in protein stability index: 0.69 ± 0.016 for the first, 0.708 ± 0.076 for the second.

PPPRPPSPLSLA and PPPRPTVPPGSR are within error of each other in protein stability index: 0.643 ± 0.1 for the first, 0.668 ± 0.014 for the second.

PPPRSPPFPSPL and PPPRTLARSRLP are within error of each other in protein stability index: 0.689 ± 0.042 for the first, 0.74 ± 0.016 for the second.

Going from PPPRTYLPRPRL to PPPSDPPPSPPP, the protein stability index falls from 0.764 ± 0.0085 to 0.665 ± 0.016.

PPPSFPDWRYRW and PPPSFPPFFPSF are within error of each other in protein stability index: 0.755 ± 0.017 for the first, 0.731 ± 0.014 for the second.

PPPSHPLSPPRP and PPPSPAPLPAGP are within error of each other in protein stability index: 0.717 ± 0.24 for the first, 0.682 ± 0.061 for the second.

PPPSPPPPPSLP and PPPSPRSAPAAS are within error of each other in protein stability index: 0.669 ± 0.019 for the first, 0.711 ± 0.1 for the second.

PPPSPTSPPPPS and PPPSSSLLPLPF are within error of each other in protein stability index: 0.69 ± 0.018 for the first, 0.817 ± 0.14 for the second.

PPPSTPLSPSSP and PPPTHPHLSSAL are within error of each other in protein stability index: 0.72 ± 0.11 for the first, 0.73 ± 0.04 for the second.

PPPTHRDPLPTP and PPPTPSSLLSTP are within error of each other in protein stability index: 0.684 ± 0.048 for the first, 0.701 ± 0.057 for the second.

Compared with PPPTSSALPALV, PPPVLSLPPLPV is lower in protein stability index: 0.736 ± 0.037 for the first, 0.668 ± 0.028 for the second.

PPPVPLPPPRSL and PPPVPPLGPSRA are within error of each other in protein stability index: 0.736 ± 0.055 for the first, 0.693 ± 0.044 for the second.

PPQGPVAPRKTP and PPQPTSPIRMPT are within error of each other in protein stability index: 0.708 ± 0.018 for the first, 0.735 ± 0.03 for the second.

Going from PPRLASFYIILG to PPRLHPNTPPLL, the protein stability index rises from 0.571 to 0.765 ± 0.08.

First: PPRPPGFPPALF
Second: PPRPPPHPAPLS
The protein stability index of the first is lower: 0.697 ± 0.018 for the first, 0.755 ± 0.019 for the second.

Going from PPRPPRPPYPPP to PPRPPSPPASRA, the protein stability index rises from 0.609 ± 0.024 to 0.77 ± 0.076.

First: PPRSPPPTPPLF
Second: PPRVPCLVPKSR
The protein stability index of the first is lower: 0.611 ± 0.01 for the first, 0.715 ± 0.014 for the second.

Compared with PPSAPPPLPPLL, PPSAPPPSYHPP is lower in protein stability index: 0.7599 ± 0.0043 for the first, 0.607 ± 0.045 for the second.

PPSDRPTVPPPP and PPSFDPSPPSSL are within error of each other in protein stability index: 0.709 ± 0.017 for the first, 0.696 ± 0.042 for the second.

PPSGPTDTQEQG and PPSLEPFSPSPR are within error of each other in protein stability index: 0.661 ± 0.035 for the first, 0.639 ± 0.013 for the second.

PPSLLPFDPSLP and PPSLLRPYPLLS are within error of each other in protein stability index: 0.708 ± 0.082 for the first, 0.66 ± 0.028 for the second.

PPSLPPPPLSQP and PPSLPRPPAFAP are within error of each other in protein stability index: 0.68 ± 0.026 for the first, 0.689 ± 0.023 for the second.

PPSPARFPPPSS and PPSPHPPPSAPP are within error of each other in protein stability index: 0.632 ± 0.015 for the first, 0.6411 ± 0.0028 for the second.

PPSPLPPPPPHP and PPSPPALPRFLL are within error of each other in protein stability index: 0.651 ± 0.079 for the first, 0.697 ± 0.025 for the second.

PPSPPAVISAGL and PPSPPCHTVTSA are within error of each other in protein stability index: 0.716 ± 0.066 for the first, 0.679 ± 0.054 for the second.

PPSPPHIHTYLT and PPSPPPPLPPPA are within error of each other in protein stability index: 0.6939 ± 0.0011 for the first, 0.6897 ± 0.0041 for the second.

Going from PPSPPPPPPRPP to PPSPSPLPPRPL, the protein stability index rises from 0.64 ± 0.022 to 0.717 ± 0.04.

PPSRLYFLSPRS and PPSRPPPRLLFA are within error of each other in protein stability index: 0.746 ± 0.039 for the first, 0.659 ± 0.048 for the second.

First: PPSSPPLAPPFL
Second: PPSSPPLQHPPP
The protein stability index of the first is higher: 0.709 ± 0.029 for the first, 0.598 ± 0.038 for the second.

Going from PPSSPPPPDSDR to PPSTNRDGRKRT, the protein stability index falls from 0.6746 ± 0.0037 to 0.644 ± 0.026.

PPSWLPLLPPPP and PPSYYPPPYLAF are within error of each other in protein stability index: 0.688 ± 0.078 for the first, 0.653 ± 0.034 for the second.

First: PPTLHVSPLCPL
Second: PPTPPCTSSPAR
The protein stability index of the first is lower: 0.607 ± 0.013 for the first, 0.739 ± 0.084 for the second.

PPTPRLPPPRLP and PPTQSRLPLPLL are within error of each other in protein stability index: 0.67 ± 0.045 for the first, 0.674 ± 0.033 for the second.
